Assay: label from the status in PepcDB records

Sequence | protein production
MSNSHPLRPFTAVGEIDHVHILSEHIGALLIGEEYGDVTFVVEKKRFPAHRVILAARCQYFRALLYGGMRESQPEAEIPLQDTTAEAFTMLLRYIYTGRATLTDEKEEVLLDFLSLAHKYGFPELEDSTSEYLCTILNIQNVCMTFDVASLYSLPKLTCMCCMFMDRNAQEVLASDGFLSLSKTALLNIVLRDSFAAPEKDIFLALLNWCKHNAKENHAEIMQAVRLPLMSLTELLNVVRPSGLLSPDAILDAIKVRSESRDMDLNYRGMLIPEENIATMKYGAQVVKGELKSALLDGDTQNYDLDHGFSRHPIDDDCRSGIEIKLGQPSIINHIRLLLWDRDSRSYSYFIEVSMDELDWIRVIDHSHYLCRSWQKLYFPARVCRYIRIVGTHNTVNKIFHIVAFECMFTNKAFTLEKGLIAPMENVATIADCASVIEGVSRSRNALLNGDTKNYDWDSGYTCHQLGSGAIVVQLAQPYMIGSIRLLLWDCDDRSYSYYVEVSTNQQQWTMVADRTKVSCKSWQSVTFERQPASFIRIVGTHNTANEVFHCVHFECPEQQSTQKEDSSEEPGTGDLSTPSQQLDPHAPRAPSASSLPPSPGPNLHSPNQQNQ | failed
MASVSGNSTAPDSAAVVTVQDPLSDYVQGLFLDMKGDYWGAIDIFRKVLVRKPADPAVHYSISQSYYRLAVLDSARVYGEAAVRLDPSNRYYLRYLAVVAHDMRDYDRAAELYGQASLLEPDRTEIMYLQGLEYMAAKRLEPALEVFRKAVRIDPYNEAAFAQTLALEIALKHYPEAIDTSKQLLKLGGNERKIGITLAELYTKTGQETLAVQTLQELIAGDRSNITYWIALFDHYIMVGRNDDFHRELAVFLERASLPPESLHDLAKLYILRSGKDSLYVAPTIALLDELTARRPRDSELFMLKGMFGMMHGHQQEGVVLFRKAVQLDSSNATAWEYLISTQLDLGQKRQAFALLAKARRRLPGQRFRWSVLEGSLLLSSHKLRRAVAVLETVAGTKRKPGDPNLLIQANINLAMACDLLGMKKRSRSAYERVLDLDPHNTLAMNNLAYLFTEEGITLRKALRLATNAVMLEPENGVYLDTLGWVHYKLGNFELARQFLEKAAATGLDEPDIYRHLGEVYRKLGNEPKAREMLEKARTVEKTQGNKKSGH | failed
MISTFALFWALCIVCIINMARYYSSLRVLLMILRDCDPLLYQYVDGGGFFTSHGQPSKQIRLVGYIYAQRYLDHHDPEFIRRCERVRGQFLLTTALCGLIVISLIAMMMWY | failed
TDDEEKDNNGQGSVSVETNYLPIADPYVMFYNNKYYAYGTGGTTAGEGFACFSSDDLKNWKREGQALSATDSYGTWGFWAPEVYYVESKKKFYLFYSAEEHICVATSTTPEGPFRQEVKQPIWSEKSIDTSLFIDDDGTPYLYFVRFTDGNVIWVAQMTDDLMSIKTETLNQCIKAEVSWELLQGKVAEGPSLLKKNGVYYLIYSANHYENKGYGVGYATSDTPMGPWVKYSKNPLLQGDAATGLVGTGHGAPFQCKDGSWKYIFHAHWSAAEIQPRTSYIKDFAISDQGVVTISGTVIKPRVLK | not failed
MLTRAIKTQLVLLTVLAVIAVVVLGWYFLRIPSLVGIGRYTLYAELPRSGGLYRTANVTYRGITIGKVTGVEPTERGARATMSIDNGYQIPTDASANVHSVSAVGEQFVDLVSTRTSGPYLRHGQTITTTTVPSQIGPALDAANRGLAVLPKDRVASVLHEASEAVGGLGSSLNRLIEATQAIAHDVRGSLEDIDDIIERSAPIIDSQVNSGNEIARWAANLNTLAAQTAQTDPAVRSILANAAPTADQVNATFSDVRESLPQTLANLEVVIDMLKRYHNGVEQALVFLPQSGAIAQSVTTEFPGQAGLGVGGLALNQPPPCLTGFLPASEWRSPADTSTAPLPKGTYCRIPMDASNVVRGARNNPCVDVPGKRAATPRECRSNEAYVPGGTNPWYGDPNQMLSCPAPAARCDQPVKPGQVIPAPSVNNGINPLPADQLPGTPPPVNDPLQRPGSGTVQCNGQQPNPCVYTPSTFPTTIYDVQSGKVVAPDGVVYSVEASTHAGADGWKVMLAPTG | failed
MYPSSSPGHRQYFLGVKSSLPLLWLMVFPALIGGVLNINPVQAQGTPYIPPPITPPPLSPSENPFDPSLFPTDPLIPSGETLTPLQRRRLIEALDALEAEALVLDQAGQGDQAFEVRYRSLRGRQRLGDLAEVEALGRIGAIAWEQGRNQDVMAIGQRLEDLQLSLTKDKAMSPELLTAFAKAYGQLHSLDSAIAVYQQMRREAQQQGDYRRENQALSMLGELYLAKFNYPAAAEVYETLLARATNARNSYYEGIYLQKLGEIYQQSAQPDNAIRIKEQLVQRRLQDGKPELVPDIQIAIGDHYLELEQPENASQAYQKAYTLAWSIKQLSTAAIALDKLGDLYLFSEQPNYALQIYKQLLQVQQQSYNYYGMMITYEKIAQLYIDAQQTSAALTAYQQALSLARSLKYSTKENNILNQIQTISGGTGS | failed
MTEKKIDFKKEEKKFYAPKRKPERIFVPEMNFLMVDGKGDPDGEEYQKAVQSLYAIAYTIKMSKMGETRLDGYSDFVVPPLEGFWWSEGKFDLKDRDAWLWTSILRQPDFVTEEVLEWAKEVARKKKPDV | failed
MLHIDDAMIEDAVTPQAAQEVLHAAFLDFGRGSAAMQRRVRTEAGGVKLSTLGAVIPGQGVAGAKVYTTIKGQFQFVILLFSAADGRPLATCDAGTLTRKRTAACTVLAAGALARPRSSVLGLFGAGTQGAEHAAQLSARFALEAILVHDPYASPEILERIGRRCGVPARMAAPADIAAQADIVVTATRSTTPLFAGQALRAGAFVGAIGSSLPHTRELDDEALRRARAVVVEWREQTLSEAGDLVLAAPDTGLDAKVVELADVLAGRAAARQADEDIVIYKSVGVGLEDVALAGYAYRRLAAQRGWPAP | not failed
MHSNSWMSCKAVDNAEKEALLLQLQADADGPRRRCEIRERSLGQAVMLALLSLLLVLLGGWLASLPSAWQLRSAQLWFWLPGALMLGAGLVGLAAAEALRRRHGQQVLALTPDTLQFANAPDPTPWVCFDGFELEQRYLSLGLVFSVIAGSRAPALAPACFKSLAAPHAWPVAAGMRVRLWLFNPMLDGQRLDFQALTDLLYAYLNAAQARSTLGQLFPEVQRVGATQ | failed
MNNINTIIQREYMIRVRKKSFLVMTILMPILFVGLVSLPIVLAQLGGDMKTIAIADRTGEYEQLFKENDEFRFVHAEKTAEEYRKMGADKSGIDAVLEIRQDLLEDPNAVAIYGYKQLPASVSNHISRILSDYLSDKKIASYNIPDIKQILADSKIELSVHTYKWSEDGTNERTSGELASGISMMMMVVIFFLIMTLAAMVQAGVLEEKKNRIMEVMVSSTRPFNLMMGKIIGIGLVGLTQLICWGVLTVLLLTVAQIAFLGNLYSPEALSRMQASDITGMASSMNAEDFAEMKEVMNIIGGINFGELFVMFLIFFIGGYLLYSSIFAVIGSMVSNDEDTSQFMMPVMILLMFGFYAAYGSMNNPEGSLAFWCSLIPFTSPLVMMVRLPYDVPLWQELLSIGLLYGCFVLMTWIGAKIYRVGVLMYGKKPSIKEIIRWINYK | failed
MASGSPPSQPSPASGSGYVPGSVSAAFVTCPNEKVAKEIARAVVEKRLAACVNLIPQITSIYEWKGKIEEDSEVLMMIKTQSSLVPALTEFVRSVHPYEVAEVIALPVEQGNPPYLHWVHQVTESV | not failed
MAKVSVYIIAYNEEQKIEPALQSVTWADEIVVIDSFSTDRTAEIARKYTDKVIQVPFEGFGKLRNSAIAATSHEWIFSLDTDERCTEEAKNEILAIIDSPDALDAYYVPRRNIFMGRWVKHSGWYPDYRQPQLFRRGAQVFTDEVVHESFTTIGRVGHMKNAIWQIPFRNFEQMISKIDRYSTLGAAKMTAKGVRPGMGKALFHALFAFFRMYILRLGILDGWAGFVIALYTFEGTFYRYAKQVEAARGWVMTRPEELER | failed
MAETSALPTGFGELEVLAVGMVLLVEALSGLSLNTLTIFSFCKTPELRTPCHLLVLSLALADSGISLNALVAATSSLLRRWPYGSDGCQAHGFQGFVTALASICSSAAIAWGRYHHYCTRSQLAWNSAVSLVLFVWLSSAFWAALPLLGWGHYDYEPLGTCCTLDYSKGDRNFTSFLFTMSFFNFAMPLFITITSYSLMEQKLGKSGHLQVNTTLPARTLLLGWGPYAILYLYAVIADVTSISPKLQMVPALIAKMVPTINAINYALGNEMVCRGIWQCLSPQKREKDRTK | failed
GGRAVARTLIQDVTERVRSRKKLEHYREYTDRLLDAIDDLFLVFDEEAKLTRWNDRVVEVTGYADEALGGMEALGFVPEEERERVASQIADGFMTGHAKMDIPLRRADGTTVPYEIAGNLVDRP | failed

Source: a protein production outcome set (Wang et al. 2014)
